Assay results: US7262289

Molecular target: KCNQ2+KCNQ3 channel (human KCNQ2 co-expressed with human KCNQ3) (human) (UniProt O43526)
Test: cell-based or functional assay

Chain of KCNQ2+KCNQ3 channel (human KCNQ2 co-expressed with human KCNQ3) (human) (O43526 other isoform, or with tags, fused parts or gaps, chain 1 of 2): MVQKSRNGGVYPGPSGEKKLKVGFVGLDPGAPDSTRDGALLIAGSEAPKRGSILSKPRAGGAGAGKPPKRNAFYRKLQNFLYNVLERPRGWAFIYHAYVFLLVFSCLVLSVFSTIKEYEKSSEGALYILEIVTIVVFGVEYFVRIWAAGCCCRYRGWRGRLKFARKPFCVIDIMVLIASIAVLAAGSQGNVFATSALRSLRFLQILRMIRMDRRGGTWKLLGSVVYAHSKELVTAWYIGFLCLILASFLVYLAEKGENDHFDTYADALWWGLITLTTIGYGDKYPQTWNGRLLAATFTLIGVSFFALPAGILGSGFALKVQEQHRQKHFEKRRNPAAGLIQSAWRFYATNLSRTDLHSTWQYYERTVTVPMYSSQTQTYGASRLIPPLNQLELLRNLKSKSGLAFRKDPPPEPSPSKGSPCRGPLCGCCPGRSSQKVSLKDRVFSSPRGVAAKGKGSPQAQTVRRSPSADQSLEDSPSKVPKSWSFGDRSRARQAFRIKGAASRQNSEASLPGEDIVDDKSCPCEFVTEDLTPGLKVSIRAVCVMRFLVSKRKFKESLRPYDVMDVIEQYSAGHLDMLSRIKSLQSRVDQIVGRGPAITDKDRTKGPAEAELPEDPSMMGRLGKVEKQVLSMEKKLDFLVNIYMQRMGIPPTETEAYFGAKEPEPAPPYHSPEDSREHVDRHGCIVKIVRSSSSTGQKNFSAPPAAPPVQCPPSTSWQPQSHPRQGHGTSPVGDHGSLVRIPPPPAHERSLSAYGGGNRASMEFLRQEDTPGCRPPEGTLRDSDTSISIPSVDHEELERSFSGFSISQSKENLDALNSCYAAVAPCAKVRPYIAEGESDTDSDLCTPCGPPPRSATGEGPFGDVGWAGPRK
Chain of KCNQ2+KCNQ3 channel (human KCNQ2 co-expressed with human KCNQ3) (human) (O43526 other isoform, or with tags, fused parts or gaps, chain 2 of 2): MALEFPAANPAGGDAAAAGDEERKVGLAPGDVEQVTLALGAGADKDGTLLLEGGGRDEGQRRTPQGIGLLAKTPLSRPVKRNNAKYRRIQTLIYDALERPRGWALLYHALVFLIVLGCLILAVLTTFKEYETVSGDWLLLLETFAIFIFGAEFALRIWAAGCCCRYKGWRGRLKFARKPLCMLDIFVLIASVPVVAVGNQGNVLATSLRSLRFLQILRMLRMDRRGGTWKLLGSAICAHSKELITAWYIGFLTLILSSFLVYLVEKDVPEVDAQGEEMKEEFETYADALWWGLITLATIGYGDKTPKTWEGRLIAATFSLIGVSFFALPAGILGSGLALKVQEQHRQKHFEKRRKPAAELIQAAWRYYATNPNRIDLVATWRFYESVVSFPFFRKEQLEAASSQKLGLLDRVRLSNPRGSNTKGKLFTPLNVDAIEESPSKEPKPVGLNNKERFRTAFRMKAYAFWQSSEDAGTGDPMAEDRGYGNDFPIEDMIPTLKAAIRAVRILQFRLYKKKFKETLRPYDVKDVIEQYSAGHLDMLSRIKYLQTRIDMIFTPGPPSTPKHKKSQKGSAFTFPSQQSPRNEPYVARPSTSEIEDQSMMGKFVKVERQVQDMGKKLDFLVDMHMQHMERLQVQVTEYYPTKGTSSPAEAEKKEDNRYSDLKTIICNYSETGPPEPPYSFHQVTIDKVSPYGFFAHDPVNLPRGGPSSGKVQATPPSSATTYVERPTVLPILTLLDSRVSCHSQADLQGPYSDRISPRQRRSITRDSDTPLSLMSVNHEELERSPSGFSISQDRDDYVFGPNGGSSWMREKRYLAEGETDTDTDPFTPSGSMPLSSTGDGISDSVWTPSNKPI

reduction of peak current amplitude at +30 mV in oocytes co-expressing KCNE1: 62%
Substance: KCNE1
